The results in this text go back to patent US20250179204A1.

Assay [1] deals with recombinant mouse GITR (plate-bound) (mouse) (UniProt O35714). Kind of assay: ELISA, plate-bound mGITR, antibody at ˜10^3 µg/ml as printed. (In general: ELISA stands for enzyme-linked immunosorbent assay.)
Assay [2] has the same target. Kind of assay: ELISA, plate-bound mGITR, plateau from ˜10-1.5 µg/ml as printed.
The target is the same in assay [3]. Kind of assay: ELISA, plate-bound mouse GITR, delta OD against Log Ab con (ug/ml).
Assay [4] concerns the target huFcγRIIA R131 (human) (UniProt P12318). Kind of assay: SPR, Biacore T200.
The target in assay [5] is human FcγRIIB (human) (UniProt P31994). Kind of assay: SPR, Biacore T200. A general note: Surface plasmon resonance follows binding to a sensor surface in real time, without labels.
Chain of human FcγRIIB (human) (P31994 43-217): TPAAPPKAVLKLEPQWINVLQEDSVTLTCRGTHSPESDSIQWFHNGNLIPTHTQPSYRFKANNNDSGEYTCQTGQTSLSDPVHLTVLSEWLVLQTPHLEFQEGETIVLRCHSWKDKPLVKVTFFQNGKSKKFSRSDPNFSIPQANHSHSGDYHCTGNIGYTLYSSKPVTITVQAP
For assay [6], the target named is recombinant mouse GITR (plate-bound) (mouse) (UniProt O35714). The assay is described as follows: ELISA, plate-bound recombinant mouse GITR, absorbance 450 nm against log(conc. ug/ml).
Assay [7] addresses huFcγRIIIA F158 (human) (UniProt P08637). Kind of assay: SPR, Biacore T200.
For assay [8], the target named is human FcγRIIIA soluble ectodomain (ELISA) (human) (UniProt P08637). The assay is described as follows: ELISA, plate-bound human FcgRIIIA soluble ectodomain, absorbance 450 nm against log(conc. ug/ml).
Chain of human FcγRIIIA soluble ectodomain (ELISA) (human) (P08637 17-208): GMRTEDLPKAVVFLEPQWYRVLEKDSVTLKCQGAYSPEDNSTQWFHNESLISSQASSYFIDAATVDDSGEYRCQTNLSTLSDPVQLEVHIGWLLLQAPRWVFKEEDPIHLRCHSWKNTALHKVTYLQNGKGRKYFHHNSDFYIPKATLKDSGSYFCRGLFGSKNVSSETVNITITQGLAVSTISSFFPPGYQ
Assay [9] has the same target. The assay is described as follows: ELISA, plate-bound human FcgRIIIA (receptor named in the legend paragraph 150, not on the sheet), absorbance 450 nm against log(conc. ug/ml).
For assay [10], the target named is human FcγRIIB (human) (UniProt P31994). The assay is described as follows: ELISA, plate-bound human FcgRIIB soluble ectodomain, absorbance 450 nm against log(conc. ug/ml).

Chain of huFcγRIIA R131 (human) (P12318 36-218 H167R limits assumed): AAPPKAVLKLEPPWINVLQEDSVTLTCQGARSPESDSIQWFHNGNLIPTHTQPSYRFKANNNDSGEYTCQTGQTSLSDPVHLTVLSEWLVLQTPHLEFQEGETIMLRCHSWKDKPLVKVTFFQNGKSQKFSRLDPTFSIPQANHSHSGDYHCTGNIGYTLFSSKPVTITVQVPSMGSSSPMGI
Chain of recombinant mouse GITR (plate-bound) (mouse) (O35714 20-153 limits assumed): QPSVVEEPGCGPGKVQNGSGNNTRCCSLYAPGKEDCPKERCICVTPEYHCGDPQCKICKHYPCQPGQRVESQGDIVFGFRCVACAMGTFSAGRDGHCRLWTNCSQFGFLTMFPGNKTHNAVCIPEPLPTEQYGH
Chain of huFcγRIIIA F158 (human) (P08637 17-208 limits assumed): as the sequence (P08637 17-208) above

A word on the EC50 (read off the curve): it is the concentration giving half of the maximal effect. Turning to “monospecific mIgG1-N297A anti-mouse GITR antibody (DTA-1 NA)”, the OD450 in assay [1] was found to be 0.6 OD450. For the same substance, in assay [2], the OD450 at plateau is 0.9 OD450. Moreover, in assay [3], the EC50 (read off the curve) is 0.004 µg/mL.

Usually Kd stands for the constant that tells how readily two partners part at equilibrium. Read a low Kd as higher affinity. As to “chimeric anti-mouse GITR antibody (DTA-1 Fab) human IgG1-G236A”, the Kd in assay [4] was found to be 120 nM; in [5] it was 4380 nM. In addition, in assay [6], the EC50 (read off the curve) was 0.02 µg/mL.

For the substance “chimeric anti-mouse GITR antibody (DTA-1 Fab) human IgG1-N297A”, the EC50 (read off the curve) in assay [6] came to 0.02 µg/mL.

For “chimeric anti-mouse GITR antibody (DTA-1 Fab) human IgG1-GASDALIE”, the Fold = KD(IgG1)/KD(Fc region variant) in [4] stood at 24.5 fold; in assay [5], 14 fold. The Kd in assay [4] came to 50 nM; in assay [7] it was 2230 nM; in [5] it was 230 nM. For the same substance, the concentration giving a half-maximal response (EC50 (read off the curve)) in [6] worked out at 0.01 µg/mL; in assay [8] it was 0.2 µg/mL.

For “chimeric anti-mouse GITR antibody (DTA-1 Fab) human IgG1-GAALIE”, in assay [6], the concentration giving a half-maximal response (EC50 (read off the curve)) came out at 0.02 µg/mL.

Regarding “chimeric anti-mouse GITR antibody (DTA-1 Fab) afucosylated human IgG1”, the Kd in assay [4] was found to be 1160 nM; in assay [7], 580 nM. The EC50 (read off the curve) in assay [6] was 0.02 µg/mL.

In the case of “chimeric anti-mouse GITR antibody (DTA-1 Fab) afucosylated human IgG1-G236A”, the EC50 (read off the curve) was determined as 0.01 µg/mL in [6] and 0.8 µg/mL in assay [9].

For the substance “chimeric anti-mouse GITR antibody (DTA-1 Fab) with human IgG1”, the Fold = KD(IgG1)/KD(Fc region variant) in [4] and in assay [7] was 1 fold throughout. Further, the Kd in assay [4] was 1160 nM; in [7], 6700 nM; in assay [5] it was 3010 nM. Besides, in [6], the EC50 (read off the curve) was found to be 0.03 µg/mL.

With “chimeric anti-mouse GITR antibody (DTA-1 Fab) human IgG1-V11”, in assay [4], the Kd worked out at 3840 nM. The concentration giving a half-maximal response (EC50 (read off the curve)) in assay [6] was 0.02 µg/mL; in [10] it was 0.4 µg/mL.
